For one assay, the target named is T1, IKKβ (Homo sapiens, UniProt O14920).
T1 sequence (O14920 1-756): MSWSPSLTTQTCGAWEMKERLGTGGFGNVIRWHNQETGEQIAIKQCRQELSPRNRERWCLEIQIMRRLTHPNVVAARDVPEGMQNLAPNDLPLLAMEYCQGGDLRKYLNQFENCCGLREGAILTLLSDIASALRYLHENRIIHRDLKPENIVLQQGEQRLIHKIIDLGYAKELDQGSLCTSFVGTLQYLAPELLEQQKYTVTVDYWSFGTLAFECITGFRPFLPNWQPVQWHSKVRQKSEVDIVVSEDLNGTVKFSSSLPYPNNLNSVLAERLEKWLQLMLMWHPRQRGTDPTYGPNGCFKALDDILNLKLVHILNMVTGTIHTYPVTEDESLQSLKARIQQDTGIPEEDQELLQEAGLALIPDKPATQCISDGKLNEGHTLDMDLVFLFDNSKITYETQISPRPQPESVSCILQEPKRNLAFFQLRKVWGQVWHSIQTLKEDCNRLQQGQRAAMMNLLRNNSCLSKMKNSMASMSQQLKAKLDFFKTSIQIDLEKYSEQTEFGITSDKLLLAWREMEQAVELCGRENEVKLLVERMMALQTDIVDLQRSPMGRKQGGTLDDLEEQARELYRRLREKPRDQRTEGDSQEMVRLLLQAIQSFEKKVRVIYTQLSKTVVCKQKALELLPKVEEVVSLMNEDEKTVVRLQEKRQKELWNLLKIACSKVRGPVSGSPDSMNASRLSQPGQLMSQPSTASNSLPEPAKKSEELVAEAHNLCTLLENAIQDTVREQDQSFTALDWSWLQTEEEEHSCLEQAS
As to the kind of experiment: In vitro GST pull-down binding to IKKβ. As to conditions: GST pull-down with purified proteins, immunoblot. How it is done: FIG. 4B is a pair of photographs of immunoblots. Recombinantly expressed, purified GST- and GST-IKKβ proteins bound to glutathione-agarose beads were incubated with purified MUC1-CD protein. The precipitates were immunoblotted (IB) with anti-MUC1-C antibodies. Input of the GST and GST-IKKβ proteins was assessed by Coomassie blue staining. The molecular weights of proteins (as indicated on the left of the photographs) are expressed as kilodaltons (kDa).
FIG. 4C (top panel) is a schematic diagram of the amino acid sequence of (i) the MUC1-cytoplasmic domain (MUC1-CD) [amino acids 1-72; SEQ ID NO:2]; (ii) the MUC1-CD fragment [amino acids 1-45; SEQ ID NO:3]; and (iii) the MUC-CD fragment [amino acids 46-72; SEQ ID NO:4]. FIG. 4C (bottom panel) is a photograph of an immunoblot and a photograph of a Coomassie blue-stained electrophoretic gel. GST- and the indicated GST-MUC1-CD fusion proteins bound to glutathione beads were incubated with purified IKKβ. The precipitates were immunoblotted with anti-IKKβ. Input of the GST and GST-MUC1-CD fusion proteins was assessed by Coomassie blue staining. The molecular weights of proteins (as indicated on the left of the photographs) are expressed as kilodaltons (kDa).
FIG. 11A is a pair of photographs of an immunoblot and Coomassie-blue stained gel. GST and the indicated GST-MUC1-CD fusion proteins (MUC1-CD and MUC1-CD(mSRM)) bound to glutathione beads were incubated with IKKβ. The precipitates were immunoblotted (IB) with an anti-IKKβ antibody. Commassie blue staining of the gel was performed to confirm that equal amounts of GST- and GST-MUC1-CD proteins were used in the experiment. The molecular weights of proteins (as indicated on the left of the photographs) are expressed as kilodaltons (kDa).
(§1) In vitro binding assays. Purified GST-MUC1-CD (glutathione s-transferase fused to the MUC1-CD polypeptide) was cleaved with thrombin to remove the GST moiety. […] Adsorbates to glutathione-conjugated beads were analyzed by immunoblotting.
(Immunoblotting shows a protein as a band on a membrane.)

The target in the next assay is IKKβ-IKKγ complexes (Homo sapiens, UniProt O14920+Q9Y6K9). As to the kind of experiment: In vitro association of IKKβ with GST-IKKγ in absence and presence of MUC1-CD proteins. The assay is classed as binding. Particulars: purified IKKβ and GST-IKKγ, with or without added MUC1 protein. How it is done:
FIG. 7C is a series of photographs of immunoblots. GST- or GST-IKKγ bound to glutathione beads was incubated with IKKβ in the absence and presence of MUC1-CD protein. The precipitates were immunoblotted (IB) with anti-IKKβ (upper panel). Input amounts of the various proteins were assessed by immunoblotting with the indicated antibodies (lower 3 panels). The molecular weights of proteins (as indicated on the left of the photographs) are expressed as kilodaltons (kDa).
FIG. 12 is a series of photographs of immunoblots. GST, and GST-IKKγ fusion proteins bound to glutathione beads were incubated with MUC1-CD, MUC1-CD(mSRM), or IKKβ proteins as indicated. The GST-pull down precipitates were immunoblotted (IB) with antibodies specific for IKKγ (top panel), IKKβ (middle panel), or MUC1 (bottom panel) as indicated. The molecular weights of proteins (as indicated on the left of the photographs) are expressed as kilodaltons (kDa).
as §1

The source of these data is patent US8129345B2, “MUC1-IκB kinase complexes and their activities” (Dana-Farber Cancer Institute, Inc., priority 2006, dated 2012).

IKKβ-IKKγ complexes, sequence (Q9Y6K9 whole entry, one chain of several): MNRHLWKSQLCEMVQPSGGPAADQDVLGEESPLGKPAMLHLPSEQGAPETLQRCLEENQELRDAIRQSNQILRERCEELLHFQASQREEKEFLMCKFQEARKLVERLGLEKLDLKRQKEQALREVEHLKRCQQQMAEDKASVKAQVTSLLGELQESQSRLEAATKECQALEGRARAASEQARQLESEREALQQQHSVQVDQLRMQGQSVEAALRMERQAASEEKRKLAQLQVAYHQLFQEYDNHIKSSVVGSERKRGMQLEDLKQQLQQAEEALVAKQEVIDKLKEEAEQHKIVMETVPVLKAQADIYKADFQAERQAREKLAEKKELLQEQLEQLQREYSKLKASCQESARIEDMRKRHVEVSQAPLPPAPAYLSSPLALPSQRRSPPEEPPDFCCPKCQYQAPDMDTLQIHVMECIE

Take “MUC1-CD: 72 amino acid cytoplasmic domain of human MUC1, SEQ ID NO:2”: the “binding to IKKβ” value with IKKβ was “interact directly”. Moreover, the “interaction between IKKβ and IKKγ” value in the assay with IKKβ-IKKγ complexes was “increases the interaction between IKKβ and IKKγ”.
